# Measured values as given in patent US11732043 (MERUS N V, dated 2023).
# T1: human LAG-3 (huLAG-3), full length, expressed on the cell surface (human, UniProt P18627 23-525)
# T1 sequence: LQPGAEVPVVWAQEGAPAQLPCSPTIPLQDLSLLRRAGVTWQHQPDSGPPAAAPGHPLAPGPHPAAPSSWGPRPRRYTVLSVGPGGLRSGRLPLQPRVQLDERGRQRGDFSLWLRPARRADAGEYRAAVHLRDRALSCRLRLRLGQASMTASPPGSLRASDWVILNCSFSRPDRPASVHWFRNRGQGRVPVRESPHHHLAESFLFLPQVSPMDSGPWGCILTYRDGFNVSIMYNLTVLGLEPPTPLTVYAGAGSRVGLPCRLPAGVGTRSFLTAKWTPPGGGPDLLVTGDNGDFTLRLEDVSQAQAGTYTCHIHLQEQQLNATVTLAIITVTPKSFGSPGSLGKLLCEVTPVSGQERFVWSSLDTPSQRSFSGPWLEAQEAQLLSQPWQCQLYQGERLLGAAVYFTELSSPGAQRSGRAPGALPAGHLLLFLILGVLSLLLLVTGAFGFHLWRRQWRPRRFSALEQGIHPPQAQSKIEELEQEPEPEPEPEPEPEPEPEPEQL
# T2: LAG-3 overexpressed on Jurkat/NFAT-RE reporter cells (Promega) (UniProt P18627 23-525)
# T2 sequence (looked up): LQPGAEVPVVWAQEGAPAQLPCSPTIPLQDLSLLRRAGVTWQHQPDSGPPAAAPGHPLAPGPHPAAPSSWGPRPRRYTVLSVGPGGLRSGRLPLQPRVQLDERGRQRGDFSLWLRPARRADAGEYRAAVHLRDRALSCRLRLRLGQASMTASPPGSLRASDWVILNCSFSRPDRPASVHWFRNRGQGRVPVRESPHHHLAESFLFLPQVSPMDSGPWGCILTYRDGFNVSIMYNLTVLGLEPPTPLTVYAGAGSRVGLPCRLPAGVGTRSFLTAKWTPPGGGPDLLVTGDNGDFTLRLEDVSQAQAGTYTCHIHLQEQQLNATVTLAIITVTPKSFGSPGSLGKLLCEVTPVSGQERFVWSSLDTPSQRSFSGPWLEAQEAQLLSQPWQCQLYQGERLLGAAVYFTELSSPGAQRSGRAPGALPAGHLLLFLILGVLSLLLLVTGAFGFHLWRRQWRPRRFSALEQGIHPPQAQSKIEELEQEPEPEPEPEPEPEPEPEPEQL
# Target: T1, human LAG-3 (huLAG-3), full length, …
# Assay: not given
row,Binder,EC50 [µg/mL]
1,MG7106 (monovalent) (bispecific antibody) VH 1: QVQLVQSGAEVKKPGSSVKVSCKASGGTFSKYVVSWVRQAPGQGFDWMGGIIPMFGTANYAQMFQGRVTITADKSTSTVNMELSSLRSEDTAVYYCVRDKAVAGLYYFDSWGQGTLVTVSS VH 2: not shown light: not shown,26.5
2,"MG7133 (monovalent) (bispecific antibody, V domains shown) VH 1: EVQLVQSGAEVKKPGSSVKVSCKASGGTFSSHAISWVRQVPGQGLEWMGGIIPLFDTAKNAQKFQGRVTITADKSTSTAYMELSSLRSEDTAVYYCARDRETGTLYYFDYWGQGTLVTVSS VH 2: not shown VL: not shown",11.2
3,"MG7139 (monovalent) (bispecific antibody, V domains shown) VH 1: QVQLVQSGAEVKKPGSSVKVSCKASGGTFSNFAFSWVRQAPGQGLEWMGGIIPMFDTAKYAQKFQGRVTIIADKSTNTAYMDLNSLRSEDTAVYYCVRDRAIGTLYYFDYWGQGTLVTVSS VH 2: not shown VL: not shown",5.71
4,"MG7524 (monovalent) (bispecific antibody, V domains shown) VH 1: QVQLVQSGAEVKKPGASVKVSCKASGYTFTSYGISWVRQAPGQGLEWMGWISAYSGNTNYAQKLQGRVTMTTDTSTSTAYMELRSLRSDDTAVYYCARGSILAAQMWGDIWGQGTLVTVSS VH 2: not shown VL: not shown",4.2
5,"MG7185 (monovalent) (bispecific antibody, V domains shown) VH 1: QVQLVQSGAEVKKPGSSVKVSCKTSGGTFSNYAFSWVRQAPGQGLEWMGGIIPIFGSTNYAQSFQGRVTITADKSTSTAYMELSSLRSEDTAVYYCARDREMGTLYFFDQWGQGTTVTVSS VH 2: not shown VL: not shown",4.49
6,"MG7144 (monovalent) (bispecific antibody, V domains shown) VH 1: QVQLVQSGAEVRKPGSSVMVSCKASGGTFSTYAINWLRQAPGQGLEWMGGIIPIFGTPYYGQRFQGRVTITADKSTNTVFMELSSLRSEDTAIYYCARDRDSGGLYYFDSWGQGTLVTVSS VH 2: not shown VL: not shown",10.2
7,MG7137 (monovalent) (bispecific antibody) VH 1: QVQLVQSGAEVKRPGASVKVSCKVSGYTLTELSMHWVRQAPGKGLEWMGGSDPEHGETVDAQKFQGRVTMTEDTSTDTAYMELSSLRSEDTAVYYCTTGGTYYYGSGSYYTLDFWGQGTLVTVSS VH 2: not shown light: not shown,1.68

# Target: T1, human LAG-3 (huLAG-3), full length, …
# Assay: not given
# Remark: another data set of the same source
row,Binder,EC50 (read off the curve) [µg/mL]
1,"H4sH15482P* (antibody, V domains shown) VH: QVQLVESGGGVVQPGRSLRLSCVASGFTFSSYGMHWVRQAPGKGLEWVAIIWYDGSNKYYADSVKGRFTISRDNSKNTQYLQMNSLRAEDTAVYYCASVATSGDFDYYGMDVWGQGTTVTVSS VL: EIVLTQSPATLSLSPGERTTLSCRASQRISTYLAWYQQKPGQAPRLLIYDASKRATGIPARFSGSGSGTGFTLTISSLEPEDFAVYYCQQRSNWPLTFGGGTKVEIKR",~0.1

# Target: T1, human LAG-3 (huLAG-3), full length, …
# Assay: FACS on HEK293T cells with mouse/human LAG-3 hybrid constructs, bivalent IgG; bin = human domain bound
row,Binder,binding result
1,"bivalent LAG-3 IgG with MF7146 variable domains (antibody, V domains shown, Bivalent monospecific IgG; copies: 2 + 2) VH: EVQLVQSGAEVKKPGSSVKVSCKASGGTFNNYFITWVRQAPGQGLEWMGGIIPSFGTGNYAQKFQGRVAITADKSTNTAYMELSSLRSEDTAIYYCVRDREVGAIYYFDYWGQGTMVTVSS VL: not shown",binds
2,"bivalent LAG-3 IgG with MF7165 variable domains (antibody, V domains shown, Bivalent monospecific IgG; copies: 2 + 2) VH: QVQLVQSGAEVRKPGASVKVSCKVSGYTLTELSIHWVRQAPGKGLEWMGAFDPEDGETIYAQKFQGRVTMTEDTSTDTAYMELSSLRSEDTAVYFCATGGTYYYGSGSYYTLDYWGQGTLVTVSS VL: not shown",binds
3,"bivalent LAG-3 IgG with MF7515 variable domains (antibody, V domains shown, Bivalent monospecific IgG; copies: 2 + 2) VH: QVQLVQSGAEVKKPGASVKVSCKASGYTFTSYGISWVRQAPGQGLEWMGWISAYSGNTNYAQKLQGRVTMTTDTSTSTAYMELRSLRSDDTAVYYCARRPGPALGDLDSWGQGTLVTVSS VL: not shown",binds

# Target: T1, human LAG-3 (huLAG-3), full length, …
# Assay: not given
# Remark: another data set of the same source
row,Binder,EC50 (read off the curve) [µg/mL]
1,"PG7116, bivalent LAG-3 IgG with two MF7116 variable domains (antibody, V domains shown, Bivalent monospecific IgG) VH: EVQLVESGGGVVQPGRSLRLSCAASGFTFSSYGMHWVRQAPGKGLEWVAVISYHGSDKYYADSVKGRFTISRDNSKNTLYLQMNSLRAEDTAVYYCARDGDNWDVFDIWGQGTLVTVSS VL: not shown",~0.1

# Target: T2, LAG-3 overexpressed on Jurkat/NFAT-RE …
# Assay: cell-based or functional assay
row,Binder,"LAG-3 blockade reporter assay (Jurkat LAG-3 reporter cells with Raji MHCII cells), activity as bivalent IgG, AUC"
1,"bivalent LAG-3 IgG with MF7106 variable domains (antibody, V domains shown) VH: QVQLVQSGAEVKKPGSSVKVSCKASGGTFSKYVVSWVRQAPGQGFDWMGGIIPMFGTANYAQMFQGRVTITADKSTSTVNMELSSLRSEDTAVYYCVRDKAVAGLYYFDSWGQGTLVTVSS VL: not shown",16.3 % of control
2,"bivalent LAG-3 IgG with MF7167 variable domains (antibody, V domains shown) VH: EVQLVESGGGLVQPGGSLRLSCAASGFTFSSYAMNWVRQAPGKGLEWVSTISGSGVSTYYADSVKGRFTISRDNSKNTLYLQMNTLRAEDTAVYYCAKDRGYDYSGSYHNWFDPWGQGTLVTVSS VL: not shown",-1.33 % of control
3,"PG7116, bivalent LAG-3 IgG with two MF7116 variable domains (antibody, V domains shown, Bivalent monospecific IgG) VH: EVQLVESGGGVVQPGRSLRLSCAASGFTFSSYGMHWVRQAPGKGLEWVAVISYHGSDKYYADSVKGRFTISRDNSKNTLYLQMNSLRAEDTAVYYCARDGDNWDVFDIWGQGTLVTVSS VL: not shown",57.1 % of control
4,"bivalent LAG-3 IgG with MF7185 variable domains (antibody, V domains shown) VH: QVQLVQSGAEVKKPGSSVKVSCKTSGGTFSNYAFSWVRQAPGQGLEWMGGIIPIFGSTNYAQSFQGRVTITADKSTSTAYMELSSLRSEDTAVYYCARDREMGTLYFFDQWGQGTTVTVSS VL: not shown",20.9 % of control
5,"bivalent LAG-3 IgG with MF7111 variable domains (antibody, V domains shown) VH: QVQLQESGPGLVKPSETLSLTCTVSDDSISDYYWSWIRQPPGKGLEWIGYIYYSGNTKYNPSLKNRVTISVDTSKSQFSLKLTSVTAADTAVYYCARIPLTGEFDYWAQGTLVTVSS VL: not shown",51.2 % of control
6,"bivalent LAG-3 IgG with MF7137 variable domains (antibody, V domains shown) VH: QVQLVQSGAEVKRPGASVKVSCKVSGYTLTELSMHWVRQAPGKGLEWMGGSDPEHGETVDAQKFQGRVTMTEDTSTDTAYMELSSLRSEDTAVYYCTTGGTYYYGSGSYYTLDFWGQGTLVTVSS VL: not shown",51.2 % of control
7,"bivalent LAG-3 IgG with MF7118 variable domains (antibody, V domains shown) VH: EVQLVESGGGLVQPGGSLRLSCAASGFTFSSYAMSWVRQAPGKGLEWVSSISGGGVSTFYADSVKGRFTISRDNSKNTLYLQMNSLRAEDTAVYYCAIVPAAATPSGTYYWIFDLWGRGTLVTVSS VL: not shown",2.04 % of control
8,"bivalent LAG-3 IgG with MF7096 variable domains (antibody, V domains shown) VH: QVQLQESGPGLVRPSETLSLTCTVSGGSISSYSWSWIRQPPGKGLEWIGYIDYSGSTNYNPSLKSRVTISVDTSKTQFSLKLSSVSAADTAVYYCAKDLLYKWNYVEGFDIWGQGTTVTVSS VL: not shown",35.7 % of control
9,"bivalent LAG-3 IgG with MF7097 variable domains (antibody, V domains shown) VH: QVQLQESGPGLVKPSETLSLTCTVSGGSISSYSWSWIRQPPGKGLEWIGYIDYSGTTNFNPSLKSRVTISVDTSKTQFSLKLSSVSAADTAVYYCAKDLLYKWNYVEGFDIWGQGTMVTVSS VL: not shown",21.4 % of control
10,"bivalent LAG-3 IgG with MF7134 variable domains (antibody, V domains shown) VH: EVQLVQSGSELKKPGASVKVSCKASGYTFTTNALNWVRQAPGQGLEWMGWINTHTGNPTYAQGFIGRFVFSLDTSVSTAYLQIRSLKAEDTAVYYCAREPNWGVYFDYWGQGTLVTVSS VL: not shown",34.3 % of control
11,"bivalent LAG-3 IgG with MF7518 variable domains (antibody, V domains shown) VH: QVQLVQSGAEVKKPGASVKVSCKASGYTFTSYGISWVRQAPGQGLEWMGWISAYSGNTNYAQKLQGRVTMTTDTSTSTAYMELRSLRSDDTAVYYCARDGSGWDDFDYWGQGTLVTVSS VL: not shown",64.7 % of control
12,"bivalent LAG-3 IgG with MF7100 variable domains (antibody, V domains shown) VH: EVQLVESGGGVVQPGRSLRLSCAASGFTFSSYDTHWVRQAPGKGLEWVAVISYDGSNKYYADSVKGRFTISRDNSKNTLYLQMNSLRAEDTAMYYCARERGWDVFDIWGQGTLVTVSS VL: not shown",39.8 % of control
